Measured values published in publication PMC7186457.

How the values were obtained:
[1] = tested on: FLAG-L4 (ribosomal protein L4) (Escherichia coli (expressed in BL21(DE3) rne131)); test: EMSA; conditions: EMSA: 30 C, 20 min, native 5% PAGE, ~2 ng RNA, 0.7-5.5 uM L4, buffer not given (cited method); footprinting: room temperature (25 C), RNase V1 in 1x RNA …
[2] = target: FLAG-L4 (ribosomal protein L4) (Escherichia coli (expressed in BL21(DE3) rne131)) (UniProt P60723); test: competition; conditions: EMSA: 30 C, 20 min, native 5% PAGE, ~2 ng RNA, 0.7-5.5 uM L4, buffer not given (cited method); footprinting: room temperature (25 C), RNase V1 in 1x RNA …

tnaC-tnaA transcribed spacer RNA (gel shift)
Kd [1]: 2100 nM

GGGGGCUUGUCGUAGUUGACAGCAGGUUCAAUCUGAACCUCAGUUAGCCGAAUUUGGCUACCUAACAAUGCUCCCAAUCGGGGAGCUACGUAAGAACGGUUACACUCUCCCAUCAAUCGUAAUGGGUCUGAGGAGUAAUCAUUUUCGUUUAUAAAAUAAUUGGAGCUCUGGUCUC [S10-UTR RNA]
binding [2]: binds

GGGGCUUAACGUCGCGUAAAUUGUUUAACACUUUGCGUAACGUACACUGGGAUCGCUGAAUUAGAGAUCGGCGUCCUUUCAUUCUAUAUACUUUGGAGUUUUAAAAUGUCUCUAAGUACUGAAGCAACAGCUAAAAUCGUUUCUGAG [rpsO-UTR RNA]
binding [2]: no binding
